Consider four molecules from patent publication US20140044713A1 (KONINKLIJKE NEDERLANDSE AKADEMIE VAN WETENSCHAPPEN, published 2014).

B1: Lgr1 (receptor, not shown: small tags and cut ends)
chain: CHHRICHCSNRVFLCQESKVTEIPSDLPRNAIELRFVLTKLRVIQKGAFSGFGDLEKIEISQNDVLEVIEADVFSNLPKLHEIRIEKANNLLYINPEAFQNLPNLQYLLISNTGIKHLPDVHKIHSLQKVLLDIQDNINIHTIERNSFVGLSFESVILWLNKNGIQEIHNCAFNGTQLDELNLSDNNNLEELPNDVFHGASGPVILDISRTRIHSLPSYGLENLKKLRARSTYNLKKLPTLEKLVALMEASLTYPSHCCAFANWRRQISELHPICNKSILRQEVDYMTQARGQRSSLAEDNESSYSRGFDMTYTEFDYDLCNEVVDVTCSPKPDAFNPCEDIMGYNILRVLIWFISILAITGNIIVLVILTTSQYKLTVPRFLMCNLAFADLCIGIYLLLIASVDIHTKSQYHNYAIDWQTGAGCDAAGFFTVFASELSVYTLTAITLERWHTITHAMQLDCKVQLRHAASVMVMGWIFAFAAALFPIFGISSYMKVSICLPMDIDSPLSQLYVMSLLVLNVLAFVVICGCYIHIYLTVRNPNIVSSSSDTRIAKRMAMLIFTDFLCMAPISFFAISASLKVPLITVSKAKILLVLFHPINSCANPFLYAIFTKNFRRDFFILLSKCGCYEMQAQIYRTETSSTVHNTHPRNGHCSSAPRVTSGSTYILVPLSHLAQN
notes: Control lane of the Rspo1-Fc pull-down
B2: double (FLAG-HA)-tagged version of human Rspo-1 (Rspo1-FH) (ligand)
chain: SRGIKGKRQRRISAEGSQACAKGCELCSEVNGCLKCSPKLFILLERNDIRQVGVCLPSCPPGYFDARNPDMNKCIKCKIEHCEACFSHNFCTKCKEGLYLHKGRCYPACPEGSSAANGTMECSSPAQCEMSEWSPWGPCSKKQQLCGFRRGSEERTRRVLHAPVGDHAACSDTKETRRCTVRRVPCPEGQKRRKGGQGRRENANRNLARKESKEAGAGSRRRKGQQQQQQQGTVGPLTSAGPA
notes: Used as HEK293T conditioned medium; also called huRSPO1-FH; not shown: FLAG-HA double tag
B3: tagged Frizzled5 (Frz5) (receptor, UniProt Q13467 27-585, looked up)
chain: ASKAPVCQEITVPMCRGIGYNLTHMPNQFNHDTQDEAGLEVHQFWPLVEIQCSPDLRFFLCSMYTPICLPDYHKPLPPCRSVCERAKAGCSPLMRQYGFAWPERMSCDRLPVLGRDAEVLCMDYNRSEATTAPPRPFPAKPTLPGPPGAPASGGECPAGGPFVCKCREPFVPILKESHPLYNKVRTGQVPNCAVPCYQPSFSADERTFATFWIGLWSVLCFISTSTTVATFLIDMERFRYPERPIIFLSACYLCVSLGFLVRLVVGHASVACSREHNHIHYETTGPALCTIVFLLVYFFGMASSIWWVILSLTWFLAAGMKWGNEAIAGYAQYFHLAAWLIPSVKSITALALSSVDGDPVAGICYVGNQNLNSLRGFVLGPLVLYLLVGTLFLLAGFVSLFRIRSVIKQGGTKTDKLEKLMIRIGIFTLLYTVPASIVVACYLYEQHYRESWEAALTCACPGHDTGQPRAKPEYWVLMLKYFMCLVVGITSGVWIWSGKTVESWRRFTSRCCCRPRRGHKSGGAMAAGDYPEASAALTGRTGPPGPAATYHKQVSLSHV
notes: whole, on cells; also called double-tagged Frizzled5; Frz5 bait; not shown: FLAG/HA tag
B4: Frz6 (endogenous, LS174T cells) (receptor, human, UniProt O60353 19-706, looked up)
chain: HSLFTCEPITVPRCMKMAYNMTFFPNLMGHYDQSIAAVEMEHFLPLANLECSPNIETFLCKAFVPTCIEQIHVVPPCRKLCEKVYSDCKKLIDTFGIRWPEELECDRLQYCDETVPVTFDPHTEFLGPQKKTEQVQRDIGFWCPRHLKTSGGQGYKFLGIDQCAPPCPNMYFKSDELEFAKSFIGTVSIFCLCATLFTFLTFLIDVRRFRYPERPIIYYSVCYSIVSLMYFIGFLLGDSTACNKADEKLELGDTVVLGSQNKACTVLFMLLYFFTMAGTVWWVILTITWFLAAGRKWSCEAIEQKAVWFHAVAWGTPGFLTVMLLAMNKVEGDNISGVCFVGLYDLDASRYFVLLPLCLCVFVGLSLLLAGIISLNHVRQVIQHDGRNQEKLKKFMIRIGVFSGLYLVPLVTLLGCYVYEQVNRITWEITWVSDHCRQYHIPCPYQAKAKARPELALFMIKYLMTLIVGISAVFWVGSKKTCTEWAGFFKRNRKRDPISESRRVLQESCEFFLKHNSKVKHKKKHYKPSSHKLKVISKSMGTSTGATANHGTSAVAITSHDYLGQETLTEIQTSPETSMREVKADGASTPRLREQDCGEPASPAASISRLSGEQVDGKGQAGSVSESARSEGRISPKSDITDTGLAQSNNLQVPSSSEPSSLKGSTSLLVHPVSGVRKEQGGGCHSDT
notes: whole, on cells

The target of one assay is T1, Rspo1-Fc fusion protein (Homo sapiens (Human), UniProt Q2MKA7 21-263, limits assumed).
T1 construct: also called Rspondin1 IgFc fusion protein; not shown: Fc (IgFc) part
Briefly: HEK293T cells transfected with the tagged Lgr, incubated with Rspo1-Fc, protein G immunoprecipitation, anti-FLAG Western blot. The text has this: FIG. 7A: Rspondin1 binds to Lgr4, Lgr5 and Lgr6. […] Bottom: Input of tagged proteins.
On the technique in general: In western blotting, separated proteins are transferred to a membrane and probed.

Assay [1] deals with T2, Lgr5-exo-Fc (leucine-rich-repeat exodomain of Lgr5, amino acids 1 to 546, human IgG-Fc fusion protein) (human, UniProt O75473 22-546).
T2 construct: range 1-546; also called LGR5-Fc; huLGR5-Fc; not shown: human IgG-Fc
T2 sequence (looked up): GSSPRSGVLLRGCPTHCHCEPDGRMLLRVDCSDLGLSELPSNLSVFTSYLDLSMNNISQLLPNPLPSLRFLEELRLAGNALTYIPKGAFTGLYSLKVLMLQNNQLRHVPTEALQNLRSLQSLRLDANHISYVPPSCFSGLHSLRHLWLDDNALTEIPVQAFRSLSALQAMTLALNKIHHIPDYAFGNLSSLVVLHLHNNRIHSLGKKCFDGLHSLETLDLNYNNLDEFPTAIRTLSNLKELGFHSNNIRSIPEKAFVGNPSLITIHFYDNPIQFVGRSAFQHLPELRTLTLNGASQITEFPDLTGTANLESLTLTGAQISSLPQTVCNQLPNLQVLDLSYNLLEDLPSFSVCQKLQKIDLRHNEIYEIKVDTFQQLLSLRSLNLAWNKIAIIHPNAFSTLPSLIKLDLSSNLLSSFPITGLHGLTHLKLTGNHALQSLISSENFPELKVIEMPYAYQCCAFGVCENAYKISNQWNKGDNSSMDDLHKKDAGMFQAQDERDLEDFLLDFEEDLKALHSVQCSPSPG
Briefly: SPR array imaging (IBIS MX96), RSpo-1-FH captured on anti-Flag spots of decreasing density, 1:1 model, extrapolated to Rmax=0. The text has this:
FIG. 15: Rspondin1-Lgr5 interaction KD determination by Surface Plasmon Resonance array imaging. […] In IBIS-SPRint software (version 2) an exponential fitting routine y=a*ebx was used for extrapolating the values of KD and kd at Rmax=0 (arrows).
Method: IBIS-SPRinT 2.0. An array of anti-Flag spots with decreasing densities was printed on a preactivated sensor surface (IBIS Technologies, Enschede, the Netherlands) using a continuous flow microspotter (CFM) (Wasatch Microfluidics, Utah, US).

A further assay deals with T3, LRP5 (endogenous) (human, UniProt O75197 32-1615).
T3 construct: whole, on cells
T3 sequence (O75197 32-1615): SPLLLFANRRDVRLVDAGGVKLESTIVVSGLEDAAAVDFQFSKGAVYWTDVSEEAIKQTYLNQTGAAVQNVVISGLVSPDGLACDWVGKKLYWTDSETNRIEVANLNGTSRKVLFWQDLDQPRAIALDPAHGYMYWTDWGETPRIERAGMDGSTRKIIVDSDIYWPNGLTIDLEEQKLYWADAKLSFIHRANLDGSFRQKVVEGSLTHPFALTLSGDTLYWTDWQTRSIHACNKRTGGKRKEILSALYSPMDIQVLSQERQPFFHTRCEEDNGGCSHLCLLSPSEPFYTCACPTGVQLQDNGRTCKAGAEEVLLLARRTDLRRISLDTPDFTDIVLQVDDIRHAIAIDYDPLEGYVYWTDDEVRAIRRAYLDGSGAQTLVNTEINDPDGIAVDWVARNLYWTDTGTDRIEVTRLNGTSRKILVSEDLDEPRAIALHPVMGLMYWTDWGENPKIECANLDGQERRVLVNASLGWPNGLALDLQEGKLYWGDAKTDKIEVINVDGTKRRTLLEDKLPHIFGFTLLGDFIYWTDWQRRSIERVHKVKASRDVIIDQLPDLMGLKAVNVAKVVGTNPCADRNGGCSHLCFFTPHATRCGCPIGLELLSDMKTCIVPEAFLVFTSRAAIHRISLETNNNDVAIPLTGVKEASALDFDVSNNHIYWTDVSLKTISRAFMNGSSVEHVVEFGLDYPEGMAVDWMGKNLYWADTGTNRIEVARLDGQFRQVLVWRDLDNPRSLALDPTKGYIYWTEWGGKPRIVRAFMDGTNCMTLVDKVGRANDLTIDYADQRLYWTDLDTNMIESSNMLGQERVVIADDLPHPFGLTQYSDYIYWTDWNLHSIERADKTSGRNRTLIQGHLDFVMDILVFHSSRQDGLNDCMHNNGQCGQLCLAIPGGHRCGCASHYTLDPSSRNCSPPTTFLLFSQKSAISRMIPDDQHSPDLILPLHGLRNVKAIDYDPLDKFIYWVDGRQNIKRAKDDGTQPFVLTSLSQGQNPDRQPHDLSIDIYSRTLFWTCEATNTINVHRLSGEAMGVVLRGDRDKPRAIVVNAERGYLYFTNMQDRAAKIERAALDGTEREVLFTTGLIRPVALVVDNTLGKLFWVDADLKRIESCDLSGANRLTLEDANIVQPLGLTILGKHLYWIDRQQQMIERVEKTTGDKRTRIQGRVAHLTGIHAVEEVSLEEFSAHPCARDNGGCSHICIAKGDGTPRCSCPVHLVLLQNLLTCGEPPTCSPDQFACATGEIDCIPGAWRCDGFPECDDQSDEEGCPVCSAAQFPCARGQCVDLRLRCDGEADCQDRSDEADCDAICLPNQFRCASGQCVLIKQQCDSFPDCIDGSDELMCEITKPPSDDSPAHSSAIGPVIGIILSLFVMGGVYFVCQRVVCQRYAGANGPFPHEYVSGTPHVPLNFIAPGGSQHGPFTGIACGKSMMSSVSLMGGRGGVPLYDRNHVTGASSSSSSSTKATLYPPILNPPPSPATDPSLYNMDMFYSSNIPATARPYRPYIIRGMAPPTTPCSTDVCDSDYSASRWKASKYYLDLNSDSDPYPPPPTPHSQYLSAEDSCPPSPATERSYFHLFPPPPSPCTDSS
The assay is described as follows: TAP (anti-FLAG, anti-HA) + mass spectrometry, 293T cells incubated with the soluble tagged bait, Exp 9. As for the experimental part:
(§1) Left panel (Exps 1-7): HEK293T cells were transiently transfected, and LS174T cells were stably, transfected with the indicated tagged proteins. Right panel (Exps 8-9): HEK293T cells were incubated with the indicated tagged soluble proteins at 1 μg/ml. Sequential immunoprecipitation was performed by anti-FLAG and anti-HA antibodies and the associated complexes were analysed by mass spectrometry. Number of assigned spectra, number of unique peptides and the MASCOT Protein Score are given for selected identified proteins.

A further assay deals with T4, LRP6 (endogenous) (human, UniProt O75581 20-1613).
T4 construct: whole, on cells
T4 sequence (O75581 20-1613): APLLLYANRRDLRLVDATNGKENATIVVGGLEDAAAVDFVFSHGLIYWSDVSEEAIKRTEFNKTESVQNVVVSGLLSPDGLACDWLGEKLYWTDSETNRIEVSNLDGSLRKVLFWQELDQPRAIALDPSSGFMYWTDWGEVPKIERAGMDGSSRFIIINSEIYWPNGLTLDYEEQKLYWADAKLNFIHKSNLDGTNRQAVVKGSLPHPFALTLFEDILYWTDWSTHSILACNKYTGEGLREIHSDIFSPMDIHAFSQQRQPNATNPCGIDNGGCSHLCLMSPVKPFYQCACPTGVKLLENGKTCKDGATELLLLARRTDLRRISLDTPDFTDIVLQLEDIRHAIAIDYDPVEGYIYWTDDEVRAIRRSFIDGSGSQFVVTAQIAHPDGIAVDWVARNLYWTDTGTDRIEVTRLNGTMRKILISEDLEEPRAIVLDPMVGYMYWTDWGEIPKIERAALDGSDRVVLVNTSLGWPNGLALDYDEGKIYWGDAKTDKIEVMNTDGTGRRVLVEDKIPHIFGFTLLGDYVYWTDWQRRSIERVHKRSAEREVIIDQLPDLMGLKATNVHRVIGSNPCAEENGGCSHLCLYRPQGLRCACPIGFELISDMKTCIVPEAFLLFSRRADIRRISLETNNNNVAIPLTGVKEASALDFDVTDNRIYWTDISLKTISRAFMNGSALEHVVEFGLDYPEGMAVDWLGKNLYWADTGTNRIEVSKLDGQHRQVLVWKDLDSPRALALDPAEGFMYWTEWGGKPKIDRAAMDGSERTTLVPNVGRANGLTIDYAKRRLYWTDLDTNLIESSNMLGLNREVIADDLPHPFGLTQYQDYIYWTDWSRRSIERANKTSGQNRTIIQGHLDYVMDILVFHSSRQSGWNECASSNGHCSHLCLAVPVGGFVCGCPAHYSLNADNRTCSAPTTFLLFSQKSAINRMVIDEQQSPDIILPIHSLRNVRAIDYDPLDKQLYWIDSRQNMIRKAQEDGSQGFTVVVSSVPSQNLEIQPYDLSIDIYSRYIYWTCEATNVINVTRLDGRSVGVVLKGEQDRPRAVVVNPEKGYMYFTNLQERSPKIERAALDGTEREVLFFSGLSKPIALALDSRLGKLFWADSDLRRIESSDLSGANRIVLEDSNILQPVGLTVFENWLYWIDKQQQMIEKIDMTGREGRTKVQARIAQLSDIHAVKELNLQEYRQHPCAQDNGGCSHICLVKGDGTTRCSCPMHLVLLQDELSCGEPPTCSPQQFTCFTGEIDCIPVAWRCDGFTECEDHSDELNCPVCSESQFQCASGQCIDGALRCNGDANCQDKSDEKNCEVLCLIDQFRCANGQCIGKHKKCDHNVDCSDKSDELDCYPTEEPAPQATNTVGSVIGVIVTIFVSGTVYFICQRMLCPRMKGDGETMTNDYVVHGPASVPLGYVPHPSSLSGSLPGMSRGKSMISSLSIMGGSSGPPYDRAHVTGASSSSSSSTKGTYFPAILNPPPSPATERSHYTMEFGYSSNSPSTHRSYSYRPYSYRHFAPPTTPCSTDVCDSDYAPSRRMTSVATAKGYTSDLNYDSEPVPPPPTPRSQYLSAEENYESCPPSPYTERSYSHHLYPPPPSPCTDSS
The assay is described as above. As for the experimental part: as §1

Assay [2] has as its target T2, Lgr5-exo-Fc (leucine-rich-repeat …). The assay is described as follows: SPR array imaging (IBIS MX96), Rspo1-FH captured on anti-FLAG, LGR5-Fc at 45, 23 and 11 nM, 1:1 discrete interaction model. An excerpt:
This allowed us to perform a binding experiment using Surface Plasmon Resonance array imaging.

Assay [3] has as its target T5, Frz7 (endogenous, LS174T cells) (human, UniProt O75084 33-574).
T5 construct: whole, on cells
Briefly: TAP (anti-FLAG, anti-HA) + mass spectrometry, bait stably expressed in LS174T cells, Exp 7. As for the experimental part:
as §1

In assay [4] the target is B4. The assay is described as above. As for the experimental part:
as §1

For the next assay, the target named is T6, FLAG/HA-tagged Lgr4 (human, UniProt Q9BXB1 25-951).
T6 construct: whole, on cells; also called Lgr4 bait; FH-tagged human Lgr4; not shown: FLAG/HA double tag
Briefly: TAP (anti-FLAG, anti-HA) + mass spectrometry, bait stably expressed in LS174T cells, Exp 2. As for the experimental part: as §1

In the case of B1, the binding result in the assay with Rspo1-Fc fusion protein is on record as “no binding (tested: ~1 µg/ml)”.

As usually defined, the Kd is the free concentration of one partner at which half of the binding sites on the other are occupied at equilibrium, for simple one-to-one binding. As usually defined, the koff is the rate constant with which the complex falls apart. Usually kon stands for the second-order rate constant of association. For the molecule B2, in assay [1], the Kd was 3.07 nM, the koff was 0.000155 s⁻¹ and the kon is 50400 M⁻¹ s⁻¹. Also, in the assay with LRP5 (endogenous), the binding result is recorded as “no binding (tested: 1 µg/ml)”. In addition, in the assay with LRP6 (endogenous), the binding result is on record as “no binding (tested: 1 µg/ml)”. This molecule registered an equilibrium dissociation constant (Kd) in assay [2] of roughly 3 nM.

For B3, the binding result in assay [3] and in assay [4] was “no binding” throughout.

Turning to B4, the binding result in the assay with FLAG/HA-tagged Lgr4 was “no binding”.
